Laboratory results reported in the supplement of paper PMC10724198.
± gives the standard deviation of the averaged measurements.

Test system: Saccharomyces cerevisiae
Assay: protein stability index of tFT-peptide fusion (C-terminal peptide) (PSI (0-1 scale)); higher = more stable (slower turnover)
Details: temperature: 30 C
Description: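 MPS profiling in S. cerevisiae of the yeast C-terminome library: the last 12 aa of each annotated ORF are fused to the C-terminus of a sfGFP-mCherry timer, after a GGGS linker. Cells are FACS-sorted into 8 mCherry/sfGFP bins and deep-sequenced. PSI runs from 0 (unstable) to 1 (stable); wild type and das1Δ backgrounds, two technical replicates each.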

[1] = genetic background: das1 deletion

LIVVLLLLLLVL [SYN8 C-terminal 12 aa] was tested, and the protein stability index [1] was 0.446 ± 0.0069 and the protein stability index (genetic background: wild type) was 0.545 ± 0.12.
LKEASRYILEVY [MET10 C-terminal 12 aa] gave a protein stability index [1] of 0.28 ± 0.013 and a protein stability index (genetic background: wild type) of 0.31 ± 0.0096.
LKGILNLFSKIR [KRE29 C-terminal 12 aa] was tested, and the protein stability index [1] was 0.671 ± 0.0078 and the protein stability index (genetic background: wild type) was 0.699 ± 0.025.
Work on LKHFVSAPSSSL [MRK1 C-terminal 12 aa] yielded a protein stability index [1] of 0.699 ± 0.011 and a protein stability index (genetic background: wild type) of 0.656 ± 0.0095.
Work on LKNKKKLYKTKV [PPQ1 C-terminal 12 aa] yielded a protein stability index [1] of 0.7157 ± 0.0043 and a protein stability index (genetic background: wild type) of 0.694 ± 0.017.
For LKTSGRYQEDVW [NCP1 C-terminal 12 aa], the protein stability index [1] was 0.706 ± 0.02 and the protein stability index (genetic background: wild type) was 0.702 ± 0.02.
Sequence LLEVSDQAFEPE [RGD1 C-terminal 12 aa] has a protein stability index [1] of 0.6967 ± 0.0019 and a protein stability index (genetic background: wild type) of 0.683 ± 0.053.
LLGENLSDMPSL [RDS1 C-terminal 12 aa] gave a protein stability index [1] of 0.6893 ± 0.0025 and a protein stability index (genetic background: wild type) of 0.693 ± 0.021.
LLQHPWLDAHII [STE11 C-terminal 12 aa] showed a protein stability index [1] of 0.722 ± 0.028 and a protein stability index (genetic background: wild type) of 0.7253 ± 0.0019.
In the case of LLQVCFIGVVCE [IRC21 C-terminal 12 aa], the protein stability index [1] is reported as 0.275 ± 0.0082 and the protein stability index (genetic background: wild type) is reported as 0.2885 ± 0.0018.
LNAVESLKEAST [TIM11 C-terminal 12 aa] was tested, and the protein stability index [1] was 0.69 ± 0.0078 and the protein stability index (genetic background: wild type) was 0.686 ± 0.029.
LNKIKNIRKKKQ [SNQ2 C-terminal 12 aa] was tested, and the protein stability index [1] was 0.705 ± 0.031 and the protein stability index (genetic background: wild type) was 0.393 ± 0.021.
With LNLPVQVEKKEK [MMR1 C-terminal 12 aa] the protein stability index [1] was 0.69221 ± 0.00034 and the protein stability index (genetic background: wild type) was 0.692 ± 0.013.
Sequence LNSYEEEANGST [SHG1 C-terminal 12 aa] has a protein stability index [1] of 0.7062 ± 0.0036 and a protein stability index (genetic background: wild type) of 0.734 ± 0.028.
LQHYRTHLKKGQ [NRG1 C-terminal 12 aa] gave a protein stability index [1] of 0.7007 ± 0.0015 and a protein stability index (genetic background: wild type) of 0.6784 ± 0.0039.
Work on LQSLPISSWRCT [YBR220C C-terminal 12 aa] yielded a protein stability index [1] of 0.701 ± 0.0098 and a protein stability index (genetic background: wild type) of 0.6711 ± 0.003.
In the case of LQVILMSLGAIA [MDM31 C-terminal 12 aa], the protein stability index [1] is reported as 0.446 ± 0.014 and the protein stability index (genetic background: wild type) is reported as 0.508 ± 0.0098.
LRANANMPTPSL [RLF2 C-terminal 12 aa] was tested, and the protein stability index [1] was 0.7083 ± 0.0022 and the protein stability index (genetic background: wild type) was 0.665 ± 0.0083.
For LRKDRQVEYPYK [MGM101 C-terminal 12 aa], the protein stability index [1] was 0.723 ± 0.033 and the protein stability index (genetic background: wild type) was 0.779 ± 0.035.
LRLKYNDANTKL [VTC1 C-terminal 12 aa] gave a protein stability index [1] of 0.68 ± 0.011 and a protein stability index (genetic background: wild type) of 0.6552 ± 0.0047.
Sequence LSCRKNLSAFAT [YOL085C C-terminal 12 aa] has a protein stability index [1] of 0.658 ± 0.018 and a protein stability index (genetic background: wild type) of 0.666 ± 0.0096.
“LSIMKTLVPWTL [YML054C-A C-terminal 12 aa]” showed a protein stability index [1] of 0.712 ± 0.024 and a protein stability index (genetic background: wild type) of 0.6528 ± 0.0022.
LTEILSKVFNRL [DUG2 C-terminal 12 aa] showed a protein stability index [1] of 0.702 ± 0.018 and a protein stability index (genetic background: wild type) of 0.678 ± 0.033.
Work on LTFDVKLVSMKN [FPR3 C-terminal 12 aa] yielded a protein stability index [1] of 0.679 ± 0.025 and a protein stability index (genetic background: wild type) of 0.667 ± 0.046.
For LTLARYRAKGML [TOM71 C-terminal 12 aa], the protein stability index [1] was 0.6936 ± 0.0042 and the protein stability index (genetic background: wild type) was 0.657 ± 0.018.
LVICCQRCRRNC [YPL277C C-terminal 12 aa] gave a protein stability index [1] of 0.69 ± 0.0082 and a protein stability index (genetic background: wild type) of 0.552 ± 0.051.
Sequence LVKLYISFFFMC [YBR144C C-terminal 12 aa] has a protein stability index [1] of 0.313 ± 0.0049 and a protein stability index (genetic background: wild type) of 0.136 ± 0.0087.
With LVLLLQIYFFSF [YGR242W C-terminal 12 aa] the protein stability index [1] was 0.277 ± 0.03 and the protein stability index (genetic background: wild type) was 0.296 ± 0.0078.
In the case of LVRQKREHEKKE [GPT2 C-terminal 12 aa], the protein stability index [1] is reported as 0.713 ± 0.0084 and the protein stability index (genetic background: wild type) is reported as 0.658 ± 0.021.
LVYRDGEISELK [PAT1 C-terminal 12 aa] was tested, and the protein stability index [1] was 0.7114 ± 0.0045 and the protein stability index (genetic background: wild type) was 0.703 ± 0.13.
LWNEFLSSINEK [ECM31 C-terminal 12 aa] gave a protein stability index [1] of 0.736 ± 0.036 and a protein stability index (genetic background: wild type) of 0.743 ± 0.06.
Sequence MAMPPGQSQPQY [DHH1 C-terminal 12 aa] has a protein stability index [1] of 0.727 ± 0.0093 and a protein stability index (genetic background: wild type) of 0.713 ± 0.034.
MCSIINIQQWYV [YGL182C C-terminal 12 aa] gave a protein stability index [1] of 0.6733 ± 0.0013 and a protein stability index (genetic background: wild type) of 0.627 ± 0.01.
MDGFNDPFAAAA [GIP2 C-terminal 12 aa] gave a protein stability index [1] of 0.736 ± 0.028 and a protein stability index (genetic background: wild type) of 0.752 ± 0.072.
With “MDSGLDLEFCKP [YKR075W-A C-terminal 12 aa]” the protein stability index [1] was 0.687 ± 0.019 and the protein stability index (genetic background: wild type) was 0.692 ± 0.045.
MESNDNLERVLS [APS1 C-terminal 12 aa] was tested, and the protein stability index [1] was 0.673 ± 0.038 and the protein stability index (genetic background: wild type) was 0.695 ± 0.032.
Sequence MISGPSSSSSAP [CYC3 C-terminal 12 aa] has a protein stability index [1] of 0.719 ± 0.012 and a protein stability index (genetic background: wild type) of 0.741 ± 0.081.
MKVLQLGFSWGG [IRC7 C-terminal 12 aa] showed a protein stability index [1] of 0.7148 ± 0.0053 and a protein stability index (genetic background: wild type) of 0.6814 ± 0.0067.
For MMNFFRDLKYGH [ODC2 C-terminal 12 aa], the protein stability index [1] was 0.704 ± 0.004 and the protein stability index (genetic background: wild type) was 0.693 ± 0.018.
Sequence MNKAEDDISEEE [SUB1 C-terminal 12 aa] has a protein stability index [1] of 0.713 ± 0.029 and a protein stability index (genetic background: wild type) of 0.684 ± 0.011.
“MNRNKSDVPYLQ [YER053C-A C-terminal 12 aa]” was tested, and the protein stability index [1] was 0.702 ± 0.014 and the protein stability index (genetic background: wild type) was 0.658 ± 0.027.
For MPPEHPFYSHYR [YNL193W C-terminal 12 aa], the protein stability index [1] was 0.7283 ± 0.0031 and the protein stability index (genetic background: wild type) was 0.729 ± 0.01.
For MQTKIEHYMESI [MRX12 C-terminal 12 aa], the protein stability index [1] was 0.712 ± 0.028 and the protein stability index (genetic background: wild type) was 0.68 ± 0.053.
For MRKHLRVSPFLF [YDL071C C-terminal 12 aa], the protein stability index [1] was 0.711 ± 0.016 and the protein stability index (genetic background: wild type) was 0.329 ± 0.0068.
MVVIVLFLSYRN [YGL177W C-terminal 12 aa] showed a protein stability index [1] of 0.276 ± 0.034 and a protein stability index (genetic background: wild type) of 0.275 ± 0.031.
MWPMPSLPWNGM [TSR1 C-terminal 12 aa] gave a protein stability index [1] of 0.727 ± 0.019 and a protein stability index (genetic background: wild type) of 0.687 ± 0.017.
NAASLIGTQQNN [DNF1 C-terminal 12 aa] showed a protein stability index [1] of 0.709 ± 0.013 and a protein stability index (genetic background: wild type) of 0.685 ± 0.013.
Work on NALKSKQKNKDD [AYR1 C-terminal 12 aa] yielded a protein stability index [1] of 0.684 ± 0.0082 and a protein stability index (genetic background: wild type) of 0.698 ± 0.044.
With NCPGCESKPVIT [SSL1 C-terminal 12 aa] the protein stability index [1] was 0.678 ± 0.016 and the protein stability index (genetic background: wild type) was 0.683 ± 0.0096.
NDDSKDEVDIIP [YPR196W C-terminal 12 aa] showed a protein stability index [1] of 0.69 ± 0.013 and a protein stability index (genetic background: wild type) of 0.698 ± 0.015.
For NDISFAFQYISH [RAD54 C-terminal 12 aa], the protein stability index [1] was 0.749 ± 0.014 and the protein stability index (genetic background: wild type) was 0.683 ± 0.069.
NDNHNPFYIREE [CDC26 C-terminal 12 aa] was tested, and the protein stability index [1] was 0.723 ± 0.021 and the protein stability index (genetic background: wild type) was 0.705 ± 0.049.
Work on NEKLSRESKGSE [SYF2 C-terminal 12 aa] yielded a protein stability index [1] of 0.687 ± 0.01 and a protein stability index (genetic background: wild type) of 0.691 ± 0.014.
For NENEFIAICTDS [CDC31 C-terminal 12 aa], the protein stability index [1] was 0.698 ± 0.02 and the protein stability index (genetic background: wild type) was 0.695 ± 0.022.
NENIHSLIGNSY [NNF2 C-terminal 12 aa] showed a protein stability index [1] of 0.702 ± 0.023 and a protein stability index (genetic background: wild type) of 0.693 ± 0.0087.
Sequence NENSEIISIDED [CTR86 C-terminal 12 aa] has a protein stability index [1] of 0.676 ± 0.0078 and a protein stability index (genetic background: wild type) of 0.65 ± 0.023.
NFQREVIDNSKL [LDH1 C-terminal 12 aa] showed a protein stability index [1] of 0.697 ± 0.015 and a protein stability index (genetic background: wild type) of 0.719 ± 0.067.
With NGKKNEAYEGFV [EXP1 C-terminal 12 aa] the protein stability index [1] was 0.699 ± 0.015 and the protein stability index (genetic background: wild type) was 0.722 ± 0.014.
With NIIHSGDVLLAE [LEU9 C-terminal 12 aa] the protein stability index [1] was 0.677 ± 0.019 and the protein stability index (genetic background: wild type) was 0.708 ± 0.035.
With NILKVDSNSSSS [RGR1 C-terminal 12 aa] the protein stability index [1] was 0.7201 ± 0.0019 and the protein stability index (genetic background: wild type) was 0.702 ± 0.029.
NKGPPCKTSALL [HMG2 C-terminal 12 aa] showed a protein stability index [1] of 0.739 ± 0.023 and a protein stability index (genetic background: wild type) of 0.668 ± 0.011.
